We go through six molecules from patent US7517959B2, “SOCS3 proteins” (Walter and Eliza Hall Institute of Medical Research, priority 2005, dated 2009).

One data set relates to 293T cells. Briefly: Pulse chase half-life experiments in 293T cells. The format is cell-based. To be noted: for effect of proteasome inhibitor MG132 on half-life: 10 μM MG-132, over eight hours; for labelled protein remaining: after 8 hr; for intracellular stability / turnover: pulse chase, result in words. An excerpt:
FIG. 9. Removing the PEST motif improves the intracellular half-life of SOCS3 and affects its degradation mechanism. • (A) Duplicate pulse chase experiments in 293T cells performed after transfection of (upper panel) wild-type (1-225) or ΔPEST (Δ129-163) SOCS3 DNA and (lower panel) ΔNC-SOCS3 (22-185) or ΔNC-Δ129-163 (22-185 ΔPEST) SOCS3 DNA. The amount of labelled protein remaining is shown as a perceintage of initial levels and plotted as a semi-log graph. […] Duplicate experiments are shown in each panel • (B) Removing the PEST motif alters the intracellular degradation pathway of SOCS3. Pulse chase experiments were performed on 293T cells transfected with wild-type SOCS3 (black) or ΔPEST SOCS3 (grey) and incubated in the presence (hashed bars) and absence (solid bars) of MG-132, a proteasome inhibitor. Experiments were performed in duplicate according to the protocol in (A) but with the addition of 10 μM MG-132 and the protein levels monitored over eight hours.
293T cells (5×10^5 cells/well) were transfected with 1.5 μg of the appropriate SOCS3 expression construct as described above. 48 h after transfection cells were washed twice in PBS and incubated for 1 h in Met/Cys-free DME (Gibco-BRL). Cells were then incubated for 30 min in DME containing 0.15 mCi/ml [^35S]Met/Cys (Perkin-Elmer) followed by DME+10% Foetal calf serum (Sigma)+2 mM Cys+2 mM Met for various times, upon which cells were lysed in KALB lysis buffer (1 mM EDTA, 150 mM NaCl, 50 mM Tris-Cl, 1% Triton X-100, pH 7.5) and the amount of [^35S]-labelled SOCS3 was determined by immunoprecipitation using anti-Flag tag M2 beads (Sigma). Detection and quantification was carried out using a FujiFilm FLA-3000 phosphoimager and associated software.
Intracellular levels of SOCS3 are strongly regulated by proteolysis. Two regions of the protein have been implicated previously in regulating proteolysis, Lys6 in the N-terminal domain and the C-terminal SOCS box (Chen et al., 2002; Kamura et al., 1998; Sasaki et al., 2003). As PEST motifs are known to be signals for protein degradation in vivo (Rogers et al., 1986), we measured the half-life of SOCS3 proteins that lacked the PEST motif, as well as constructs lacking the SOCS box and the N-terminal region. […] As the SOCS box and the N-terminal domains also affect SOCS3 turnover we further examined the effect of deleting these regions. The decrease in SOCS3 degradation upon removing the PEST motif from either the full-length protein (upper panel) or from SOCS322-185 (which lacks both the N-terminal domain and SOCS box, lower panel) was significant.
As PEST motifs have been associated with proteasome-mediated degradation, we investigated whether proteasome inhibitors would have an effect on the half-life of SOCS3 in 293T cells. […] After 8 hr in the presence of MG132 approximately 65% of ΔPEST SOCS3 remained, compared with ca. 45% in its absence. […] Thus it appears that, in 293T cells, the proteasomal pathway is an important route for ΔPEST SOCS3 degradation but that wild-type SOCS3, which contains the PEST motif, is efficiently degraded via another mechanism.

For data set [1] the following is noted: depending on the cell type; cited from earlier work.
The procedure of data set [2]: (§1) Pelleted bacterial cells were resuspended in PBS and then lysed by homogenisation. The lysate was centrifuged at 20,000 g and the pelleted inclusion bodies solubilised using 6M GdnHCl. The protein was then purified using Ni-NTA resin (Qiagen) by binding at pH 8.0, washing at pH 6.3 and eluting at pH 4.5, all in 6M GdnHCl. The eluted protein was diluted to 0.1 mg/mL and a final GdnHCl concentration of 4 M and then refolded by extensive dialysis against 25 mM sodium phosphate, 50 mM sodium chloride, 5 mM 2-mercaptoethanol at pH 6.7.
All constructs contained the SH2 domain, as defined by sequence homology (Okazaki et al., 2002), but included differing lengths of sequence outside this region.
The six mutants (A50D, G53R, L58E, A62E, A65E, G99D) were all cloned and expressed in E. coli as part of a 22-185 construct.

Another data set has as its target SOCS3 (Mus musculus, UniProt O35718). To be noted: result in words; cited from earlier work.
Data set [3] has as its target tyrosine phosphorylated peptide from gp130 (Mus musculus, UniProt Q00560, Q756E). Briefly: Binding studies and isothermal titration calorimetry (ITC) with gp130 peptide. To be noted: for ΔH: FIG. 4 titration, fit to single site binding isotherm. As to the method:
as §1
In general terms: In ITC the heat of successive injections is recorded.

Data set [4] has as its system LIF-induced Stat3 activity. Put plainly: Stat3-responsive luciferase assay in 293T cells. The format is cell-based. To be noted: 100 or 300 ng cDNA, 10 ng/ml LIF overnight. An excerpt:
FIG. 8. […] Backbone amide chemical shift differences between residues in wild-type SOCS3 and ΔPEST SOCS3, which has residues 129-163 replaced by […] (SEQ ID NO:10), are plotted against residue number; amide proton and nitrogen chemical shift differences were averaged according to Δδav, a weighted average of the ^15N and ^1HN chemical shifts as follows: Δδav={0.5[Δδ(^1HN)^2+(0.2Δδ(15N))^2]}^1/2 (Pellecchia et al., 1999). The position of the PEST sequence is marked by a double asterisk. • (B) SOCS3 PEST deletion mutants are able to inhibit STAT activation. 293T cells were transiently transfected with 100 or 300 ng cDNA expressing various Flag-tagged SOCS-3 proteins in the presence of the Stat3-responsive reporter gene. […] Upper panel: Luciferase activity from triplicate samples was determined and normalized against Renilla luciferase activity. Lower panel: Lysates were analysed by Western blot with anti-Flag antibody. […]
Firefly and Renilla luciferase activities were quantified using substrate reagents from the Luciferase Assay Dual-Reporter kit (Promega, Madison Wis.) and an automated LUMIstar Galaxy plate reader (BMG Technologies, Offenburg, Germany). SOCS3 protein expression was analysed by Western blot with polyclonal rat anti-Flag antibody (Drs. D. Huang & L. O'Reilly, The Walter and Eliza Hall Institute of Medical Research, Melbourne, Australia) as described (Nicholson et al., 1999). […]

“Also recorded” adds a separate entry of the source.

Chain of SOCS3 (O35718 whole entry): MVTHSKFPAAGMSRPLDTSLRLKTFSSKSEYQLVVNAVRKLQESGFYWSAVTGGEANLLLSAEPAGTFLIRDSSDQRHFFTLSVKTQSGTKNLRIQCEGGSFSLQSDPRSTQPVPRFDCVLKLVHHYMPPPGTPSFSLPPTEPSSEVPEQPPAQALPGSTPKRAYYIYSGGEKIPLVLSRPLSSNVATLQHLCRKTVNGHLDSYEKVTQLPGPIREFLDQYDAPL

For “wild-type SOCS3: Wild-type (1-225) murine SOCS3, Flag-tagged in the cell assays; SEQ ID NO:1”, in the data set on 293T cells, the “effect of proteasome inhibitor MG132 on half-life” value is on record as “did not affect the half-life; also recorded: no effect on the half-life”. The same molecule returned a labelled protein remaining in the data set on 293T cells (MG132 state not specified (no effect on wild-type)) of 25%. For the same molecule, the half-life entry in data set [1] is given as “under 5 minutes to over 8 hours”. Further, the “solubility (in words)” value in data set [2] is listed as “too low for structure determination”.

Consider “STASTVEpYSTVVHSG [phosphotyrosine peptide from gp130]”, for which the “binding to mouse SOCS3” value on SOCS3 is on record as “bind with high affinity”.

B1: SOCS3(22-185)(Δ129-163): 22-185 construct with Pro129-Arg163 replaced by an eight residue (Gly-Ser)x4 linker; SEQ ID NO:3 (protein, listed as Mus musculus)
chain: LKTFSSKSEYQLVVNAVRKLQESGFYWSAVTGGEANLLLSAEPAGTFLIRDSSDQRHFFTLSVKTQSGTKNLRIQCEGGSFSLQSDPRSTQPVPRFDCVLKLVHHYMGSGSGSGSAYYIYSGGEKIPLVLSRPLSSN
With B1, in the data set on 293T cells, the “intracellular stability / turnover” value is “improved its in vivo stability”. Moreover, the ΔH in data set [3] is -6.4 kcal/mol. Also, the “binding to the gp130 peptide” value in data set [3] (result in words) was “binds to the gp130 peptide”.

B2: ΔPEST SOCS3: Full-length SOCS3 lacking the PEST sequence (Δ129-163), Flag-tagged (protein)
chain: LKTFSSKSEYQLVVNAVRKLQESGFYWSAVTGGEANLLLSAEPAGTFLIRDSSDQRHFFTLSVKTQSGTKNLRIQCEGGSFSLQSDPRSTQPVPRFDCVLKLVHHYMGSGSGSGSAYYIYSGGEKIPLVLSRPLSSN
With B2, in the data set on 293T cells, the “effect of proteasome inhibitor MG132 on half-life” value is on record as “dramatically increased the half-life; also recorded: significantly increased the half-life”. Also, the labelled protein remaining result in the data set with 293T cells (in the absence of MG132) is “ca. 45%”; with 293T cells (in the presence of MG132 (10 μM)), “approximately 65%”. Besides, the “intracellular stability / turnover” value in the data set with 293T cells is recorded as “improved its in vivo stability”. Also, in data set [4], the “ability to inhibit LIF-induced Stat3 activity” value is “did not alter the ability of SOCS3 to inhibit LIF-induced Stat3 activity”.

B3: SOCS3(22-225): Mouse SOCS3 residues 22-225 containing KIR, extended SH2 domain and SOCS box (protein)
chain: LKTFSSKSEYQLVVNAVRKLQESGFYWSAVTGGEANLLLSAEPAGTFLIRDSSDQRHFFTLSVKTQSGTKNLRIQCEGGSFSLQSDPRSTQPVPRFDCVLKLVHHYMPPPGTPSFSLPPTEPSSEVPEQPPAQALPGSTPKRAYYIYSGGEKIPLVLSRPLSSNVATLQHLCRKTVNGHLDSYEKVTQLPGPIREFLDQYDAPL
Consider B3, for which, in data set [2], the “solubility (in words)” value is “too poorly soluble” and the “solubility in NaCl/Pi” value was less than 1000 µg/mL.

B4: SOCS3(22-185): Mouse SOCS3 residues 22-185 with KIR and extended SH2 domain, lacking the C-terminal SOCS box (protein)
chain: LKTFSSKSEYQLVVNAVRKLQESGFYWSAVTGGEANLLLSAEPAGTFLIRDSSDQRHFFTLSVKTQSGTKNLRIQCEGGSFSLQSDPRSTQPVPRFDCVLKLVHHYMPPPGTPSFSLPPTEPSSEVPEQPPAQALPGSTPKRAYYIYSGGEKIPLVLSRPLSSN
On to B4, for which the ΔH in data set [3] is -6.2 kcal/mol. In data set [2], the “solubility (in words)” value is recorded as “highest solubility” and the “soluble to” value is “≈ 0.5 mM”.
